Broadly, the Kd is the equilibrium constant for the complex coming apart.

Assay [1] addresses T1, biotinylated human CK1δ kinase domain (CK1δ ΔC, residues 1–317) (human, UniProt P48730 1-317, biotin on the N-terminus (Sortase A reaction of biotin-LPETGG with the N-terminal G of GAMDPEF)).
T1 construct: N-terminal vector artifact left after TEV cleavage; its first G is joined to the sortase peptide; human casein kinase 1 delta, catalytic domain, residues 1-317; After the sortase reaction the N-terminus should read biotin-LPET-GAMDPEF-; also called biotinylated CK1; not shown: His-GST, N-terminal, cleaved; biotin-LPETGG sortase peptide, N-terminal, kept
T1 sequence: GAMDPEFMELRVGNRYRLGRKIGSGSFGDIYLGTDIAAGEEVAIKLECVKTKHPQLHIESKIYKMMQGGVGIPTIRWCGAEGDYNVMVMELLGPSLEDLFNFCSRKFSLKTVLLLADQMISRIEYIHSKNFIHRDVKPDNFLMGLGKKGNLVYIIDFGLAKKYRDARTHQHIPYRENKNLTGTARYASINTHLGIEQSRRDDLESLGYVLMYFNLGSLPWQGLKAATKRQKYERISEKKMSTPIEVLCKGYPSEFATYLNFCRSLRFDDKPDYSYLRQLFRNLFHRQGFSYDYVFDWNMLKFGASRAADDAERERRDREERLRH
Nature of the assay: BLI; biotinylated CK1δ ΔC immobilised on streptavidin biosensors, LIN-42 fragments titrated; SEC buffer (50 mM Tris pH 7.5, 200 mM NaCl, 1 mM EDTA, 5% glycerol, 1 mM TCEP, 0.05% Tween-20) with 7.5 mM BSA as printed; Octet-RED96e; kinetic analysis, 2:1 heterogeneous ligand binding model, global fit. The conditions noted are these: both partners purified.

In assay [2] the target is T2, human CK1δ kinase domain (CK1δ ΔC, residues 1–317) (human, UniProt P48730 1-317).
T2 construct: N-terminal vector artifact left after TEV cleavage; human casein kinase 1 delta, catalytic domain, residues 1-317; also called CK1δ∆C; source: E. coli Rosetta (DE3), purified (Ni-NTA, TEV cleavage, GST column, SEC); not shown: His-GST, N-terminal, cleaved
T2 sequence: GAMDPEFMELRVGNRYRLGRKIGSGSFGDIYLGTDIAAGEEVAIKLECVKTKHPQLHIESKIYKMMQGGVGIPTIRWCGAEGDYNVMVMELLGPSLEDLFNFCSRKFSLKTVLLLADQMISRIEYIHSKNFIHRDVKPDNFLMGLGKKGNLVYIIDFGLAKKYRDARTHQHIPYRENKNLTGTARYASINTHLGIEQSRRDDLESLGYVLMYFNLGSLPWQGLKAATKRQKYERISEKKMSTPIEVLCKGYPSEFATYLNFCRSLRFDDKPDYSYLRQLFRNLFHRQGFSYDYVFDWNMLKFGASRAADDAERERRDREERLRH
Nature of the assay: pull-down; magnetic streptavidin beads hold biotinylated LIN-42 CK1BD + Tail WT or mutants (5 µM), with and without CK1δ ΔC (5 µM). The conditions noted are these: both partners purified.

B1: LIN-42 CK1BD (residues 402–475) (domain or fragment, C. elegans)
chain: GAMDPEFLSYTQINCLENVHRLLKSQSRPESPAKQDEPFDEKKYPPQTPLTREALTLHTKRFEDEYKDTWCRRLKRLSDDV
notes: N-terminal vector artifact left after TEV cleavage; LIN-42, C. elegans, residues 402-475 (SYQ/CK1BD-A and LT/CK1BD-B); numbers fit the longest isoform of 598 amino acids; also called truncated fragment of LIN-42 lacking the C-terminal tail; source: E. coli Rosetta (DE3), purified (Ni-NTA, TEV cleavage, second Ni-NTA, SEC); not shown: His-NusA, N-terminal, cleaved
In assay [1], B1 gave a Kd of 303 nM.

B2: biotinylated LIN-42 CK1BD-∆A + Tail (residues 434–598) (domain or fragment, C. elegans)
chain: GAMDPEFDEKKYPPQTPLTREALTLHTKRFEDEYKDTWCRRLKRLSDDVPSSPPAKRTTPIHWTSSSQNHYRTMAPAPPPPPGKNYQITYTPLDDLTDQKSTNTKSDVENVAYPISGSKFSTPMRLSIDGLLPRGATSTGGASPTSGTNSPPVFPKTSSSSSLLMLRDSQN
modifications: biotin on the N-terminus (Sortase A reaction of biotin-LPETGG with the N-terminal G of GAMDPEF)
notes: N-terminal vector artifact left after TEV cleavage; its first G is joined to the sortase peptide; LIN-42, C. elegans, residues 434-598: CK1BD + Tail without the SYQ/CK1BD-A motif; also called biotinylated CK1BD + Tail mutant, SYQ/CK1BD-A deleted; not shown: His-NusA, N-terminal, cleaved; biotin-LPETGG sortase peptide, N-terminal, kept
With B2, the binding result in assay [2] was “binds”.

B3: LIN-42 CK1BD-∆A + Tail (residues 434–598) (domain or fragment, C. elegans)
chain: GAMDPEFDEKKYPPQTPLTREALTLHTKRFEDEYKDTWCRRLKRLSDDVPSSPPAKRTTPIHWTSSSQNHYRTMAPAPPPPPGKNYQITYTPLDDLTDQKSTNTKSDVENVAYPISGSKFSTPMRLSIDGLLPRGATSTGGASPTSGTNSPPVFPKTSSSSSLLMLRDSQN
notes: N-terminal vector artifact left after TEV cleavage; LIN-42, C. elegans, residues 434-598: CK1BD + Tail without the SYQ/CK1BD-A motif; source: E. coli Rosetta (DE3), purified (Ni-NTA, TEV cleavage, second Ni-NTA, SEC); not shown: His-NusA, N-terminal, cleaved
On to B3, for which, in assay [1], the Kd is ~3000 nM.

B4: biotinylated LIN-42 CK1BD + Tail (residues 402–598), wild type (domain or fragment, C. elegans)
chain: GAMDPEFLSYTQINCLENVHRLLKSQSRPESPAKQDEPFDEKKYPPQTPLTREALTLHTKRFEDEYKDTWCRRLKRLSDDVPSSPPAKRTTPIHWTSSSQNHYRTMAPAPPPPPGKNYQITYTPLDDLTDQKSTNTKSDVENVAYPISGSKFSTPMRLSIDGLLPRGATSTGGASPTSGTNSPPVFPKTSSSSSLLMLRDSQN
modifications: biotin on the N-terminus (Sortase A reaction of biotin-LPETGG with the N-terminal G of GAMDPEF)
notes: N-terminal vector artifact left after TEV cleavage; its first G is joined to the sortase peptide; LIN-42, C. elegans, residues 402-598 (CK1BD and C-terminal tail); After the sortase reaction the N-terminus should read biotin-LPET-GAMDPEF-; also called biotinylated LIN-42 CK1BD + Tail WT; wild-type LIN-42 protein; not shown: His-NusA, N-terminal, cleaved; biotin-LPETGG sortase peptide, N-terminal, …
B4: in assay [2], the binding result is reported as “binds”.

B5: LIN-42 CK1BD + Tail (residues 402–598) (domain or fragment, C. elegans)
chain: GAMDPEFLSYTQINCLENVHRLLKSQSRPESPAKQDEPFDEKKYPPQTPLTREALTLHTKRFEDEYKDTWCRRLKRLSDDVPSSPPAKRTTPIHWTSSSQNHYRTMAPAPPPPPGKNYQITYTPLDDLTDQKSTNTKSDVENVAYPISGSKFSTPMRLSIDGLLPRGATSTGGASPTSGTNSPPVFPKTSSSSSLLMLRDSQN
notes: N-terminal vector artifact left after TEV cleavage; LIN-42, C. elegans, residues 402-598 (CK1BD and C-terminal tail); numbers fit the longest isoform of 598 amino acids; also called wild-type LIN-42 CK1BD + Tail; source: E. coli Rosetta (DE3), purified (Ni-NTA, TEV cleavage, second Ni-NTA, SEC); not shown: His-NusA, N-terminal, cleaved
On to B5, for which, in assay [1], binding was put at a Kd of 309 nM.

Values taken from publication PMC12624140, “A conserved chronobiological complex times C. elegans development” (The EMBO Journal, 2025).
